Target: t-PA (Homo sapiens, UniProt P00750)
Test: SPR

Sequence of t-PA (P00750 36-562): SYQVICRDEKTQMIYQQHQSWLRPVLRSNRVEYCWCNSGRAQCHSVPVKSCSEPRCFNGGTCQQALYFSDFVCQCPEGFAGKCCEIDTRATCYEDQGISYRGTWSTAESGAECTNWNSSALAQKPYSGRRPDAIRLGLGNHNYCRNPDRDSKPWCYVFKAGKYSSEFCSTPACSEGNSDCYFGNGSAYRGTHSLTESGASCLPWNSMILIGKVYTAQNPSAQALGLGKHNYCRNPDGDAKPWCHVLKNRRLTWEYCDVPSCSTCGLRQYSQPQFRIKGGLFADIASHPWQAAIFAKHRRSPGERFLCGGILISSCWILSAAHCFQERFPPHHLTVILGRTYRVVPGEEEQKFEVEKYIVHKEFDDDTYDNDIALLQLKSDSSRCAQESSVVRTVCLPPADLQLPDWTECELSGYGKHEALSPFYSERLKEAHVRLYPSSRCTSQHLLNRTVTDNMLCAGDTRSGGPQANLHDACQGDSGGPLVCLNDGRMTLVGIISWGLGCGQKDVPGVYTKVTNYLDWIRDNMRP

- Kd: 20 nM
B1: β2-glycoprotein I (protein)
chain: GRTCPKPDDLPFSTVVPLKTFYEPGEEITYSCKPGYVSRGGMRKFICPLTGLWPINTLKCTPRVCPFAGILENGAVRYTTFEYPNTISFSCNTGFYLNGADSAKCTEEGKWSPELPVCAPIICPPPSIPTFATLRVYKPSAGNNSLYRDTAVFECLPQHAMFGNDTITCTTHGNWTKLPECREVKCPFPSRPDNGFVNYPAKPTLYYKDKATFGCHDGYSLDGPEEIECTKLGNWSAMPSCKASCKVPVKKATVVYQGERVKIQEKFKNGMLHGDKVSFFCKNKEKKCSYTEDAQCIDGTIEVPKCFKEHSSLAFWKTDASDVKPC

Source: publication PMC2965030 (2009)
